Substitutions are numbered along the chain they refer to.
T1: consensus S-HBs protein of HBV genotype E (ConsHBAg_E) (hepatitis B virus genotype E (consensus), UniProt Q69603 174-399)
T1 construct: also called genotype E S-HBs
T1 chain: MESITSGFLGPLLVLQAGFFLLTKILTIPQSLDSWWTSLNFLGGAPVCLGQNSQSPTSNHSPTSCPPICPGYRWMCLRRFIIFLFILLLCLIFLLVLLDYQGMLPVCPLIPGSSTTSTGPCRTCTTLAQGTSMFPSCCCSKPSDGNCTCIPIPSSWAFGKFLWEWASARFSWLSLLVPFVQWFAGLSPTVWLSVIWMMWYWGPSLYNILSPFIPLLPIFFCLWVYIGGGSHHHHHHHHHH

T2: consensus S-HBs protein of HBV genotype I (ConsHBAg_I) (hepatitis B virus genotype I (consensus), UniProt P31873 175-400)
T2 construct: also called genotype I S-HBs
T2 chain: T1 chain with S3N, R122K, L127P, T131N, F134Y, S140T, S143T, G159A, F161Y, A184V

B1: Bv4.104 (antibody)
heavy: not shown
light: QSALTQPASVSGSPGQSITISCTGTSSDVGNYKSVSWYQHHPGKAPKFMIYEGTQRPSGVSNRFSGSKSGNTASLTISGLQAEDEAHYYCCSYAGSSTWLFGGGTKLTVLGQPKAAPSVTLFPPSSEELQANKATLVCLISDFYPGAVTVAWKADSSPVKAGVETTTPSKQSNNKYAASSYLSLTPEQWKSHRSYSCQVTHEGSTVEKTVAPTECS
notes: also called PIBv4.104
B2: Bc4.204 (antibody, human IgG1, lambda)
heavy: not shown
light: QSALTQPRSVSGSPGQSVTISCIGTNSDFGRYDYVSWYQQHPDKAPKLLIYDVSQRPSGVPDRFSGSKSGYTASLIISGLQADDEAEYFCCSYAGSFNLVFGGGTKVTVLGQPKAAPSVTLFPPSSEELQANKATLVCLISDFYPGAVTVAWKADSSPVKAGVETTTPSKQSNNKYAASSYLSLTPEQWKSHRSYSCQVTHEGSTVEKTVAPTECS

How the values were obtained:
[1] = molecular target: T3, Adw S-HBs protein (adw HBsAg particles, GenHevac (Adw)) (hepatitis B virus, adw subtype); assay: ELISA, AUC of binding curve; parameters: unit not given beside the values
T3 construct: also called GenHevac-B

[2] = molecular target: T4, Ayw S-HBs protein (ayw HBsAg particles, Engerix-B (Ayw)) (hepatitis B virus, ayw subtype); assay: ELISA, AUC of binding curve; parameters: unit not given beside the values
[3] = molecular target: T3, Adw S-HBs protein (adw HBsAg particles, …); assay: ELISA on recombinant HBV vaccine particles
[4] = molecular target: T4, Ayw S-HBs protein (ayw HBsAg particles, …); assay: ELISA on recombinant HBV vaccine particles
[5] = molecular target: T5, consensus S-HBs protein of HBV genotype A (ConsHBAg_A) (hepatitis B virus genotype A (consensus), UniProt P03141 175-400); assay: flow cytometry, S-HBs-transfected 293-F cells
T5 construct: also called genotype A S-HBs

[6] = molecular target: T6, consensus S-HBs protein of HBV genotype B (ConsHBAg_B) (hepatitis B virus genotype B (consensus), UniProt Q9PWW3 175-400); assay: flow cytometry, S-HBs-transfected 293-F cells
T6 construct: also called genotype B S-HBs

[7] = molecular target: T7, consensus S-HBs protein of HBV genotype C (ConsHBAg_C) (hepatitis B virus genotype C (consensus), UniProt P03140 175-400); assay: flow cytometry, S-HBs-transfected 293-F cells
T7 construct: also called genotype C S-HBs

[8] = molecular target: T8, consensus S-HBs protein of HBV genotype D (ConsHBAg_D) (hepatitis B virus genotype D (consensus), UniProt P03138 164-389); assay: flow cytometry, S-HBs-transfected 293-F cells
T8 construct: also called genotype D S-HBs; ConsD S-HBs

[9] = molecular target: T1, consensus S-HBs protein of HBV genotype …; assay: flow cytometry, S-HBs-transfected 293-F cells
[10] = molecular target: T9, consensus S-HBs protein of HBV genotype F (ConsHBAg_F) (hepatitis B virus genotype F (consensus), UniProt Q05496 175-400); assay: flow cytometry, S-HBs-transfected 293-F cells
T9 construct: also called genotype F S-HBs
T9 sequence (Q05496 175-400, tags left off): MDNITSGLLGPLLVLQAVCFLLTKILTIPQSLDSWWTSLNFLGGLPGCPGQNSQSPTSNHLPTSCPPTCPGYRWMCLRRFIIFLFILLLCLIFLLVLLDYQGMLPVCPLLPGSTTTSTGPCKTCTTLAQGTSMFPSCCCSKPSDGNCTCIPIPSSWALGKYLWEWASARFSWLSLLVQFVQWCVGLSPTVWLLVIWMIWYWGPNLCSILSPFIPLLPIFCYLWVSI

[11] = molecular target: T10, consensus S-HBs protein of HBV genotype G (ConsHBAg_G) (hepatitis B virus genotype G (consensus), UniProt Q9IBI3 174-399); assay: flow cytometry, S-HBs-transfected 293-F cells
T10 construct: also called genotype G S-HBs

[12] = molecular target: T11, consensus S-HBs protein of HBV genotype H (ConsHBAg_H) (hepatitis B virus genotype H (consensus), UniProt Q8JMZ6 175-400); assay: flow cytometry, S-HBs-transfected 293-F cells
T11 construct: also called genotype H S-HBs
T11 sequence (Q8JMZ6 175-400, tags left off): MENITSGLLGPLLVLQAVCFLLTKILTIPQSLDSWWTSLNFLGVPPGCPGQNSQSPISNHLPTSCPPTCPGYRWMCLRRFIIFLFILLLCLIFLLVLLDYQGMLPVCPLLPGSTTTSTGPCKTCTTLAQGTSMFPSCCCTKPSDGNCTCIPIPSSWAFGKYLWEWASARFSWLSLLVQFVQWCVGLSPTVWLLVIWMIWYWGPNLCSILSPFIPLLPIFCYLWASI

[13] = molecular target: T2, consensus S-HBs protein of HBV genotype …; assay: flow cytometry, S-HBs-transfected 293-F cells
[14] = molecular target: genotype D S-HBs mutant protein T126A (hepatitis B virus genotype D, UniProt P03138 164-389); assay: flow cytometry, S-HBs-transfected 293-F cells
[15] = molecular target: genotype D S-HBs mutant protein M133T (hepatitis B virus genotype D, UniProt P03138 164-389); assay: flow cytometry, S-HBs-transfected 293-F cells
[16] = molecular target: genotype D S-HBs mutant protein Y134V (hepatitis B virus genotype D, UniProt P03138 164-389); assay: flow cytometry, S-HBs-transfected 293-F cells
[17] = molecular target: genotype D S-HBs mutant protein G145R (hepatitis B virus genotype D, UniProt P03138 164-389); assay: flow cytometry, S-HBs-transfected 293-F cells
[18] = molecular target: genotype D S-HBs mutant protein N146S (hepatitis B virus genotype D, UniProt P03138 164-389); assay: flow cytometry, S-HBs-transfected 293-F cells
[19] = molecular target: T5, consensus S-HBs protein of HBV genotype …; assay: flow cytometry on cells expressing genotype-specific S-HBs
[20] = molecular target: T6, consensus S-HBs protein of HBV genotype …; assay: as above
[21] = molecular target: T7, consensus S-HBs protein of HBV genotype …; assay: as above
[22] = molecular target: T9, consensus S-HBs protein of HBV genotype …; assay: as above
[23] = molecular target: T10, consensus S-HBs protein of HBV genotype …; assay: as above
[24] = molecular target: T11, consensus S-HBs protein of HBV genotype …; assay: as above
[25] = molecular target: T2, consensus S-HBs protein of HBV genotype …; assay: as above
[26] = molecular target: HBV genotype D viruses (produced in HepG2.2.15 cell culture supernatant) (hepatitis B virus genotype D); assay: cell-based or functional assay

Row | Binder | AUC (serotype binding) [1] | AUC (serotype binding) [2] | EC50 [3] [µg/mL] | EC50 [4] [µg/mL] | % of bound S-HBs-expressing cells [5] [%] | % of bound S-HBs-expressing cells [6] [%] | % of bound S-HBs-expressing cells [7] [%] | % of bound S-HBs-expressing cells [8] [%] | % of bound S-HBs-expressing cells [9] [%] | % of bound S-HBs-expressing cells [10] [%] | % of bound S-HBs-expressing cells [11] [%] | % of bound S-HBs-expressing cells [12] [%] | % of bound S-HBs-expressing cells [13] [%] | % of bound S-HBs-expressing cells [14] [%] | % of bound S-HBs-expressing cells [15] [%] | % of bound S-HBs-expressing cells [16] [%] | % of bound S-HBs-expressing cells [17] [%] | % of bound S-HBs-expressing cells [18] [%] | binding result [22] | binding result [24] | also measured
1 | B1 | 7 | 37 | 6.58 | 0.0046 | 1 | 1 | 5 | 73 | 73 | 1 | 1 | 1 | 1 | 64 | 64 | 60 | 54 | 63 | no binding | no binding | binding result [19]: no binding; binding result [20]: no binding; binding result [21]: no binding; binding result [23]: no binding; binding result [25]: no binding
2 | B2 | 36 | 36 | 0.0156 | 0.015 | 74 | 65 | 65 | 68 | 65 | 0 | 71 | 1 | 58 | 60 | 59 | 57 | 55 | 53 | no binding | no binding | HBV-gD in vitro neutralization (IC50 µg/ml) [26]: 0.000229 µg/mL
